Assay results from patent publication CN115197321A (UNIV SICHUAN, dated 2022).
Read-outs that look alike come from different tables or passages of the source. Each block holds one molecule with its values, some of them ahead of it.

Assays:
[1] = molecular target: CD25-hIgG1Fc(人CD25胞外域的C端融合人IgG1的Fc段) (human) (UniProt P01589); assay: ELISA, coated CD25-hIgG1Fc 1 μg/mL
[2] = molecular target: T1, CD25-His(人CD25胞外域的C端融合6×His标签) (human, UniProt P01589 22-240); assay: SPR (Biacore)
T1 construct: extracellular domain; Made in-house; also called 人CD25-His
T1 sequence: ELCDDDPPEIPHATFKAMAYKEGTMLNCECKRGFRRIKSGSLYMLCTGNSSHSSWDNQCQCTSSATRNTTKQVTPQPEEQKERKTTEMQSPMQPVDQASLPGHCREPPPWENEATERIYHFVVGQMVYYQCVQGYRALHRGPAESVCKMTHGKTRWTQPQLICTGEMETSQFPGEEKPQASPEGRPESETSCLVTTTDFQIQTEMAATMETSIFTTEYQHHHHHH

[3] = molecular target: T2, 人CD25 (on CD25-positive cells: SU-DHL-1, U937, NK-92, human PBMC) (human, UniProt P01589 22-272); assay: flow cytometry on SU-DHL-1 and U937 cells, Figure 8
T2 construct: whole, on cells; Endogenous CD25 on human cells; also called IL-2Rα
T2 sequence (looked up): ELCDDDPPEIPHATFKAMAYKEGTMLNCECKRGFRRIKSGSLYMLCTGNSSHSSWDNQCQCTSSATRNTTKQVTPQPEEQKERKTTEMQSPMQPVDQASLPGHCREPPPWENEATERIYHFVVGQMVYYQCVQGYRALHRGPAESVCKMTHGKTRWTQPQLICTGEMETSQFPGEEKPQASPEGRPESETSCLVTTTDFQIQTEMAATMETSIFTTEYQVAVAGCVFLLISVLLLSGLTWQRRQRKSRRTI

[4] = molecular target: T1, CD25-His(人CD25胞外域的C端融合6×His标签); assay: SPR (Biacore) binding kinetics, Figure 6
[5] = molecular target: T3, 鼠CD25(R&D公司) (鼠 (mouse), UniProt P01590 22-236, limits assumed); assay: ELISA, coated mouse CD25 50 ng/well, hybridoma supernatant
T3 construct: Bought protein
T3 sequence (looked up): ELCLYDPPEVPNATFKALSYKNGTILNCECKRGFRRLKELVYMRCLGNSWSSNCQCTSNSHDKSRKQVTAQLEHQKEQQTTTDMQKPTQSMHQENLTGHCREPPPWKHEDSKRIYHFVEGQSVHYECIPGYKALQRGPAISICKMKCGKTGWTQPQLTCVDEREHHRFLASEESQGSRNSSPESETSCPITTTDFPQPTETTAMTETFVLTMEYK

[6] = molecular target: T1, CD25-His(人CD25胞外域的C端融合6×His标签); assay: SPR (Biacore); remark: listed apart in the source

OD450 [1]: < 0.3 OD
Molecule: 小鼠IgG (antibody)

Kd [2]: 2.33 nM
koff [2]: 0.000356 s⁻¹
kon [2]: 153000 M⁻¹ s⁻¹
B1: 人源化抗体h7B7-15 (antibody, V domains shown)
VH: QVQLQESGPGLVKPSQTLSLTCAVYGYSITSDYAWNWIRQPPGKGLEWIGYINYSGSTSYNPSLKSRVTISVDTSKNQFSLKLSSVTAADTAVYYCARKGGFFDVWGQGTTVTVSS
VL: DIQMTQSPSSLSASVGDRVTITCSASQGISNYLNWYQQKPGKAPKLLIYYTSSLHSGVPSRFSGSGSGTDFTFTISSLQPEDIATYYCLQYSKLPWTFGGGTKVEIK
notes: Human IgG1κ; heavy chain 4 (IGHV4-34*09) with light chain 3 (IGKV1-33*01)

binding result [2]: no binding
B2: h7B7-15Y (antibody, V domains shown)
VH: QVQLQESGPGLVKPSQTLSLTCAVYGYSITSDYAWNWIRQPPGKGLEWIGYIYYSGSTSYNPSLKSRVTISVDTSKNQFSLKLSSVTAADTAVYYCARKGGFFDVWGQGTTVTVSS
VL: DIQMTQSPSSLSASVGDRVTITCSASQGISNYLNWYQQKPGKAPKLLIYYTSSLHSGVPSRFSGSGSGTDFTFTISSLQPEDIATYYCLQYSKLPWTFGGGTKVEIK
notes: Mutant of h7B7-15 in the N of the NYS motif of VH-CDR2; human IgG1κ as the parent; also called h7B7突变体 N53Y

Kd [2]: 21.1 nM
koff [2]: 0.00502 s⁻¹
kon [2]: 238000 M⁻¹ s⁻¹
B3: h7B7-15Q (antibody, V domains shown)
VH: QVQLQESGPGLVKPSQTLSLTCAVYGYSITSDYAWNWIRQPPGKGLEWIGYIQYSGSTSYNPSLKSRVTISVDTSKNQFSLKLSSVTAADTAVYYCARKGGFFDVWGQGTTVTVSS
VL: DIQMTQSPSSLSASVGDRVTITCSASQGISNYLNWYQQKPGKAPKLLIYYTSSLHSGVPSRFSGSGSGTDFTFTISSLQPEDIATYYCLQYSKLPWTFGGGTKVEIK
notes: Mutant of h7B7-15 in the N of the NYS motif of VH-CDR2; human IgG1κ as the parent; also called h7B7突变体 N53Q

Kd [2]: 8.55 nM
koff [2]: 0.00103 s⁻¹
kon [2]: 121000 M⁻¹ s⁻¹
B4: h7B7-15A (antibody, V domains shown)
VH: QVQLQESGPGLVKPSQTLSLTCAVYGYSITSDYAWNWIRQPPGKGLEWIGYIAYSGSTSYNPSLKSRVTISVDTSKNQFSLKLSSVTAADTAVYYCARKGGFFDVWGQGTTVTVSS
VL: DIQMTQSPSSLSASVGDRVTITCSASQGISNYLNWYQQKPGKAPKLLIYYTSSLHSGVPSRFSGSGSGTDFTFTISSLQPEDIATYYCLQYSKLPWTFGGGTKVEIK
notes: Mutant of h7B7-15 in the N of the NYS motif of VH-CDR2; human IgG1κ as the parent; also called h7B7突变体 N53A

Kd [2]: 4.83 nM
koff [2]: 0.000554 s⁻¹
kon [2]: 115000 M⁻¹ s⁻¹
B5: h7B7-15S (antibody, V domains shown)
VH: QVQLQESGPGLVKPSQTLSLTCAVYGYSITSDYAWNWIRQPPGKGLEWIGYISYSGSTSYNPSLKSRVTISVDTSKNQFSLKLSSVTAADTAVYYCARKGGFFDVWGQGTTVTVSS
VL: DIQMTQSPSSLSASVGDRVTITCSASQGISNYLNWYQQKPGKAPKLLIYYTSSLHSGVPSRFSGSGSGTDFTFTISSLQPEDIATYYCLQYSKLPWTFGGGTKVEIK
notes: N53S mutant of h7B7-15; human IgG1κ as the parent; also called h7B7突变体 N53S

binding result [3]: binds
binding result [4]: binds
B6: 重组单克隆抗体F10-2 (antibody, V domains shown)
VH: QVQLKQSGPGLVQPSQSLSITCTVSGFSLTSYGVHWVRQSPGKGLEWLGVIWRGGSTDYNAAFMSRLSITKDNSKSQVFFKMNSLQAGDTAVYYCAKNERFYGFDYWGQGTTLTVSS
VL: DIVMTQAAFSNPVTLGTSASISCRSSKSLLHSNGITYLYWYLQKPGQSPQLLIYQMSNLASGVPDRFSSSGSGTDFTLRISRVEAEDVGVYYCAQNLELPTFGSGTKLEIK
notes: a human-mouse chimeric IgG1κ form was also made; also called 抗体F10-2(来自F10)

binding result [5]: no binding
B7: 杂交瘤抗体F10 (antibody, IgG2a, V domains shown)
VH: QVQLKQSGPGLVQPSQSLSITCTVSGFSLTSYGVHWVRQSPGKGLEWLGVIWRGGSTDYNAAFMSRLSITKDNSKSQVFFKMNSLQAGDTAVYYCAKNERFYGFDYWGQGTTLTVSS
VL: DIVMTQAAFSNPVTLGTSASISCRSSKSLLHSNGITYLYWYLQKPGQSPQLLIYQMSNLASGVPDRFSSSGSGTDFTLRISRVEAEDVGVYYCAQNLELPTFGSGTKLEIK
notes: Mouse hybridoma antibody, mIgG2a; the tie to the hybridoma antibody rests on that statement

Kd [6]: 10.5 nM
koff [6]: 0.00333 s⁻¹
kon [6]: 318000 M⁻¹ s⁻¹
B8: hF10-2-3(BM4+BM3) (antibody, V domains shown)
VH: QVQLKQSGPGLVKPSDTLSLTCTVSGFSLTSYGVHWVRQPPGKGLEWLGVIWRGGSTDYNAAFMSRLSITKDNSKSQVSLKLSSVTAADTAVYYCAKNERFYGFDYWGQGTLVTVSS
VL: DIVMTQSPLSLPVTPGEPASISCRSSKSLLHSNGITYLYWYLQKPGQSPQLLIYQMSNLASGVPDRFSSSGSGTDFTLRISRVEAEDVGVYYCAQNLELPTFGGGTKVEIK
notes: Made as for h7B7 (human IgG1κ)

Kd [6]: 18.1 nM
koff [6]: 0.00126 s⁻¹
kon [6]: 69900 M⁻¹ s⁻¹
B9: hF10-2-4(BM5+BM3) (antibody, V domains shown)
VH: QVQLKESGPGLVKPSDTLSLTCTVSGFSLTSYGVHWIRQPPGKGLEWIGVIWRGGSTDYNAAFMSRLSITKDNSKSQVSLKLSSVTAADTAVYYCAKNERFYGFDYWGQGTLVTVSS
VL: DIVMTQSPLSLPVTPGEPASISCRSSKSLLHSNGITYLYWYLQKPGQSPQLLIYQMSNLASGVPDRFSSSGSGTDFTLRISRVEAEDVGVYYCAQNLELPTFGGGTKVEIK
notes: as for B8

binding result [6]: no binding
B10: hF10-2-1(BM4+BM) (antibody, V domains shown)
VH: QVQLKQSGPGLVKPSDTLSLTCTVSGFSLTSYGVHWVRQPPGKGLEWLGVIWRGGSTDYNAAFMSRLSITKDNSKSQVSLKLSSVTAADTAVYYCAKNERFYGFDYWGQGTLVTVSS
VL: DIVMTQSPLSLPVTPGEPASISCRSSKSLLHSNGITYLYWYLQKPGQSPQLLIYQMSNLASGVPDRFSSSGSGTDFTLKISRVEAEDVGVYYCAQNLELPTFGGGTKVEIK
notes: as for B8

binding result [6]: no binding
B11: hF10-2-2(BM5+BM) (antibody, V domains shown)
VH: QVQLKESGPGLVKPSDTLSLTCTVSGFSLTSYGVHWIRQPPGKGLEWIGVIWRGGSTDYNAAFMSRLSITKDNSKSQVSLKLSSVTAADTAVYYCAKNERFYGFDYWGQGTLVTVSS
VL: DIVMTQSPLSLPVTPGEPASISCRSSKSLLHSNGITYLYWYLQKPGQSPQLLIYQMSNLASGVPDRFSSSGSGTDFTLKISRVEAEDVGVYYCAQNLELPTFGGGTKVEIK
notes: as for B8

binding result [3]: binds
binding result [4]: binds
B12: 重组单克隆抗体7B7 (antibody, V domains shown)
VH: EVQLQESGPGLVKPSQSLSLTCTVTGYSITSDYAWNWIRQFPGNKLEWMGYINYSGSTSYNPSLKSRISITRDTSKNQFFLQLNSVTTEDTATYYCARKGGFFDVWGAGTTVTVSS
VL: DIQMTQTTSSLSASLGDRVTISCSASQGISNYLNWYQQKPDGTVKLLIYYTSSLHSGVPSRFSGSGSGTDYSLTISNLEPEDIATYYCLQYSKLPWTFGGGTKLEIK
notes: a human-mouse chimeric IgG1κ form was also made; also called 抗体7B7(来自B7)

binding result [5]: no binding
B13: 杂交瘤抗体B7 (antibody, IgG1, V domains shown)
VH: EVQLQESGPGLVKPSQSLSLTCTVTGYSITSDYAWNWIRQFPGNKLEWMGYINYSGSTSYNPSLKSRISITRDTSKNQFFLQLNSVTTEDTATYYCARKGGFFDVWGAGTTVTVSS
VL: DIQMTQTTSSLSASLGDRVTISCSASQGISNYLNWYQQKPDGTVKLLIYYTSSLHSGVPSRFSGSGSGTDYSLTISNLEPEDIATYYCLQYSKLPWTFGGGTKLEIK
notes: Mouse hybridoma antibody, mIgG1; the tie to the hybridoma antibody rests on that statement
